Source: publication PMC6591361, “Recombinant production of human α2-macroglobulin variants and interaction studies with recombinant G-related α2-macroglobulin binding protein and latent transforming growth factor-β2” (Scientific Reports, 2019)

Assays:
[1] = molecular target: N-terminal part of human α2-macroglobulin (N-hα2M) (human) (UniProt P01023); test: not stated; apparent mass of the purified hα2M fragments without reducing agents; method not named
[2] = molecular target: T1, native authentic human α2-macroglobulin (human, UniProt P01023 24-1474, thioester bond intact (native form)); test: native gel or EMSA; Sulfo-NHS-AMCA-labelled GRAB mixed with hα2M variants at a 4:1 molar ratio, buffer J, two hours at 37 °C, 10% native PAGE, gel fluorescence then Coomassie; settings: both partners purified
T1 construct: human α2-macroglobulin, UniProt P01023, 1,474-residue precursor; as secreted it lacks the signal peptide (recombinant constructs begin at S24); Tetramer (680.6 kDa by SEC-MALLS); glycosylated; also called hα2M; native hα2M; source: purified from human blood plasma of individual donors (PEG 4,000 precipitation, zinc-chelating resin, IEC, SEC)
T1 sequence (looked up): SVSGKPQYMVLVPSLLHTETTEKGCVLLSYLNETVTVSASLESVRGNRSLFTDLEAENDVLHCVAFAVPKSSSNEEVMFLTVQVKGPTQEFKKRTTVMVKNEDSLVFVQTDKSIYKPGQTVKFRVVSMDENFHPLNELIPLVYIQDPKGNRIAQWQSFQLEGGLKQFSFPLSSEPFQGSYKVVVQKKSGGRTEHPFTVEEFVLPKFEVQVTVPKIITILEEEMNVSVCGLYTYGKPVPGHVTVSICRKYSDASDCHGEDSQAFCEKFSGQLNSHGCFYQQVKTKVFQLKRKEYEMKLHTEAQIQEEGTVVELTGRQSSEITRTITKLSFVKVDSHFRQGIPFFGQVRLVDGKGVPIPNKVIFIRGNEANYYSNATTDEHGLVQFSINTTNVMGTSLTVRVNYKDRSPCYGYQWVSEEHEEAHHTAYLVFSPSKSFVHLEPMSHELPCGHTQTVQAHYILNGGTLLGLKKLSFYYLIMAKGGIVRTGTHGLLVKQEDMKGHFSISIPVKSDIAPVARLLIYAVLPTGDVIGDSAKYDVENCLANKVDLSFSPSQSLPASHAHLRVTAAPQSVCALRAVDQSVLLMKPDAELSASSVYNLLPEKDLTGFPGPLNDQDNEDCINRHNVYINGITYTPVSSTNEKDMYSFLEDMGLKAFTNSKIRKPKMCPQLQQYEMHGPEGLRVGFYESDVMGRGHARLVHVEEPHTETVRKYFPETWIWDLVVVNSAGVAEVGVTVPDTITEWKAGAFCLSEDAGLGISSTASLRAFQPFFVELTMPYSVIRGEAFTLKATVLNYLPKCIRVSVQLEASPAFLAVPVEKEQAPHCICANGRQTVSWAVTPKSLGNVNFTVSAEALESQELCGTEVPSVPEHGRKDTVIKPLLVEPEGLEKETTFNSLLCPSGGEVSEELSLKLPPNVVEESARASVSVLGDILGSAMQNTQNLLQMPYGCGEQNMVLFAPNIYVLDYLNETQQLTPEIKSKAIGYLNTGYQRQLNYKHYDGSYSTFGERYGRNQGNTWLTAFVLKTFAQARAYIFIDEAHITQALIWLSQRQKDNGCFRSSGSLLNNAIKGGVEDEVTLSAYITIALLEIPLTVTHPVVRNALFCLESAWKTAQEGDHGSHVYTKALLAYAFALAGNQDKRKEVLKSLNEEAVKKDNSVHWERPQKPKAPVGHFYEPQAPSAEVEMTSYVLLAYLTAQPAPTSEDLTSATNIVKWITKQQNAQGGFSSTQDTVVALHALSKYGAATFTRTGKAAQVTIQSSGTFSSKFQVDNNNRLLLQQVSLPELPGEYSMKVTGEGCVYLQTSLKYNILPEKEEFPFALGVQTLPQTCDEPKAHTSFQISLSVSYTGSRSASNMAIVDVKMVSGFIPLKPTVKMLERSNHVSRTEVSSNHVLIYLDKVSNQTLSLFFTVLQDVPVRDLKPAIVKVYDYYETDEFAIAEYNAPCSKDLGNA

[3] = molecular target: T2, methylamine-induced authentic human α2-macroglobulin (human, UniProt P01023 24-1474, thioester bond opened by methylamine, producing a free cysteine); test: as above; settings: both partners purified
T2 construct: human α2-macroglobulin, UniProt P01023; plasma protein as m1, induced form; Tetramer (684.1 kDa by SEC-MALLS); also called induced hα2M; induced authentic hα2M
T2 sequence (looked up): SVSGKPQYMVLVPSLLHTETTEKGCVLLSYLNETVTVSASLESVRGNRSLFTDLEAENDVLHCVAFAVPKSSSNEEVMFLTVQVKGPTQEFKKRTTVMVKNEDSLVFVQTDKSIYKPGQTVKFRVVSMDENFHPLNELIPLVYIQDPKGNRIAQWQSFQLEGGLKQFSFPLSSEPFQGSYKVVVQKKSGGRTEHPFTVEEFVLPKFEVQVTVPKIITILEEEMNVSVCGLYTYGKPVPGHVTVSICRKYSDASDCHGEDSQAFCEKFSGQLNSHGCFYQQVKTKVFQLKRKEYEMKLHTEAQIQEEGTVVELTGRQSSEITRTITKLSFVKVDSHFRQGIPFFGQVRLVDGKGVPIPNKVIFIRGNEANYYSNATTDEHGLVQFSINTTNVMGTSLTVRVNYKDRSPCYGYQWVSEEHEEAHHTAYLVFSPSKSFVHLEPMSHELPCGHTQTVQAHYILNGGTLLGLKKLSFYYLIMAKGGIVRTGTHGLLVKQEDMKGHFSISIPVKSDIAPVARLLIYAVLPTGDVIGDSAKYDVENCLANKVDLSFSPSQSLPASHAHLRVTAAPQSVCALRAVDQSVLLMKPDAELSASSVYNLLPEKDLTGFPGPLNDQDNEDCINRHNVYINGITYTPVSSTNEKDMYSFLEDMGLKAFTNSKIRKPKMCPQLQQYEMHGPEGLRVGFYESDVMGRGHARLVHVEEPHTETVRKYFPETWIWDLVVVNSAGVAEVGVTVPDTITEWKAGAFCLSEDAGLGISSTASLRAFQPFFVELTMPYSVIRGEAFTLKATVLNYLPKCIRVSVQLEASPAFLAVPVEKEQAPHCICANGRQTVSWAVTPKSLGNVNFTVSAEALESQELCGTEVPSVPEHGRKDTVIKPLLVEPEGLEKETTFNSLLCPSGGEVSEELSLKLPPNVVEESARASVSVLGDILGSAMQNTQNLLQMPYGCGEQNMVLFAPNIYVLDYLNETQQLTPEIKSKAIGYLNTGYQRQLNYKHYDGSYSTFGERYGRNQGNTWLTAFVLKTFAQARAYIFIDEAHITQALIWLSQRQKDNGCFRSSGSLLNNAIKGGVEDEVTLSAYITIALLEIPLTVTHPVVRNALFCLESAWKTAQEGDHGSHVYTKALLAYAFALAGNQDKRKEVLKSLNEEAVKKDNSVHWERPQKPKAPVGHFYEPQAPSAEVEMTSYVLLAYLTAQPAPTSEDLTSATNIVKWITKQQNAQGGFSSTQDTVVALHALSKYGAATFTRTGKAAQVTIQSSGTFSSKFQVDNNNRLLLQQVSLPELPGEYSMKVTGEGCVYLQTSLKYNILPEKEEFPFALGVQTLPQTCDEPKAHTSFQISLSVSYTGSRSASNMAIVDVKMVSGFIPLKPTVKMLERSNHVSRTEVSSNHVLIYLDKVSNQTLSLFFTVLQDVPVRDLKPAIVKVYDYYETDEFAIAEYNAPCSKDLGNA

[4] = molecular target: the molecule itself; test: SEC; Superose 6 10/300, buffer D (20 mM Tris-HCl, 150 mM sodium chloride, pH 7.5); data not shown

“N-terminal part of human α2-macroglobulin (N-hα2M) (from UniProt P01023 24-788) (domain or fragment)” showed a stoichiometry N [1] of 2.

B1: G-related α2M-binding protein (GRAB), V34-N181, labelled with Sulfo-NHS-AMCA (domain or fragment)
chain: GAMVDSPIEQPRIIPNGGTLTNLLGNAPEKLALRNEERAIDELKKQAIEDKEATTAIEAASSDALEALADQTDALQSEEAAVVKADNAASDALEALADQTDALQSEEAEVVQSDNAASDAWEKAATPIALDVKKTKDTKPVVKKEERQNVN
modifications: sulfosuccinimidyl-7-amino-4-methylcoumarin-3-acetate (Sulfo-NHS-AMCA) label, sites not stated
notes: residues left at the N-terminus after TEV cleavage, from the cloning strategy; also called fluorophore-labelled GRAB; labelled GRAB; source: E. coli BL21 (DE3), purified, labelled with Sulfo-NHS-AMCA; not shown: His6, N-terminal, cleaved
B1: binds [2]; binds [3].

B2: recombinant full-length human α2-macroglobulin from S2 cells (natural protein)
chain: SVSGKPQYMVLVPSLLHTETTEKGCVLLSYLNETVTVSASLESVRGNRSLFTDLEAENDVLHCVAFAVPKSSSNEEVMFLTVQVKGPTQEFKKRTTVMVKNEDSLVFVQTDKSIYKPGQTVKFRVVSMDENFHPLNELIPLVYIQDPKGNRIAQWQSFQLEGGLKQFSFPLSSEPFQGSYKVVVQKKSGGRTEHPFTVEEFVLPKFEVQVTVPKIITILEEEMNVSVCGLYTYGKPVPGHVTVSICRKYSDASDCHGEDSQAFCEKFSGQLNSHGCFYQQVKTKVFQLKRKEYEMKLHTEAQIQEEGTVVELTGRQSSEITRTITKLSFVKVDSHFRQGIPFFGQVRLVDGKGVPIPNKVIFIRGNEANYYSNATTDEHGLVQFSINTTNVMGTSLTVRVNYKDRSPCYGYQWVSEEHEEAHHTAYLVFSPSKSFVHLEPMSHELPCGHTQTVQAHYILNGGTLLGLKKLSFYYLIMAKGGIVRTGTHGLLVKQEDMKGHFSISIPVKSDIAPVARLLIYAVLPTGDVIGDSAKYDVENCLANKVDLSFSPSQSLPASHAHLRVTAAPQSVCALRAVDQSVLLMKPDAELSASSVYNLLPEKDLTGFPGPLNDQDNEDCINRHNVYINGITYTPVSSTNEKDMYSFLEDMGLKAFTNSKIRKPKMCPQLQQYEMHGPEGLRVGFYESDVMGRGHARLVHVEEPHTETVRKYFPETWIWDLVVVNSAGVAEVGVTVPDTITEWKAGAFCLSEDAGLGISSTASLRAFQPFFVELTMPYSVIRGEAFTLKATVLNYLPKCIRVSVQLEASPAFLAVPVEKEQAPHCICANGRQTVSWAVTPKSLGNVNFTVSAEALESQELCGTEVPSVPEHGRKDTVIKPLLVEPEGLEKETTFNSLLCPSGGEVSEELSLKLPPNVVEESARASVSVLGDILGSAMQNTQNLLQMPYGCGEQNMVLFAPNIYVLDYLNETQQLTPEIKSKAIGYLNTGYQRQLNYKHYDGSYSTFGERYGRNQGNTWLTAFVLKTFAQARAYIFIDEAHITQALIWLSQRQKDNGCFRSSGSLLNNAIKGGVEDEVTLSAYITIALLEIPLTVTHPVVRNALFCLESAWKTAQEGDHGSHVYTKALLAYAFALAGNQDKRKEVLKSLNEEAVKKDNSVHWERPQKPKAPVGHFYEPQAPSAEVEMTSYVLLAYLTAQPAPTSEDLTSATNIVKWITKQQNAQGGFSSTQDTVVALHALSKYGAATFTRTGKAAQVTIQSSGTFSSKFQVDNNNRLLLQQVSLPELPGEYSMKVTGEGCVYLQTSLKYNILPEKEEFPFALGVQTLPQTCDEPKAHTSFQISLSVSYTGSRSASNMAIVDVKMVSGFIPLKPTVKMLERSNHVSRTEVSSNHVLIYLDKVSNQTLSLFFTVLQDVPVRDLKPAIVKVYDYYETDEFAIAEYNAPCSKDLGNPTG
notes: human α2-macroglobulin, UniProt P01023, residues S24-N1473; residues from the construct before the His6-tag; Found in the induced form; also called recombinant hα2M from S2 cells; pIE-hα2M-H6; source: Drosophila S2 cells, transiently transfected, secreted (AKH signal peptide), purified (Ni-NTA, IEC, SEC); not shown: His6, C-terminal, kept
With B2 the “stoichiometry N” value [4] was 4.
